Reference: patent US20250326861A1 (REGENXBIO, published 2025)

Target: Activated human plasma kallikrein (Enzyme Research Laboratories) (human, UniProt P03952 20-638)
Test: cell-based or functional assay

Sequence of Activated human plasma kallikrein (Enzyme Research Laboratories) (P03952 20-638 limits assumed): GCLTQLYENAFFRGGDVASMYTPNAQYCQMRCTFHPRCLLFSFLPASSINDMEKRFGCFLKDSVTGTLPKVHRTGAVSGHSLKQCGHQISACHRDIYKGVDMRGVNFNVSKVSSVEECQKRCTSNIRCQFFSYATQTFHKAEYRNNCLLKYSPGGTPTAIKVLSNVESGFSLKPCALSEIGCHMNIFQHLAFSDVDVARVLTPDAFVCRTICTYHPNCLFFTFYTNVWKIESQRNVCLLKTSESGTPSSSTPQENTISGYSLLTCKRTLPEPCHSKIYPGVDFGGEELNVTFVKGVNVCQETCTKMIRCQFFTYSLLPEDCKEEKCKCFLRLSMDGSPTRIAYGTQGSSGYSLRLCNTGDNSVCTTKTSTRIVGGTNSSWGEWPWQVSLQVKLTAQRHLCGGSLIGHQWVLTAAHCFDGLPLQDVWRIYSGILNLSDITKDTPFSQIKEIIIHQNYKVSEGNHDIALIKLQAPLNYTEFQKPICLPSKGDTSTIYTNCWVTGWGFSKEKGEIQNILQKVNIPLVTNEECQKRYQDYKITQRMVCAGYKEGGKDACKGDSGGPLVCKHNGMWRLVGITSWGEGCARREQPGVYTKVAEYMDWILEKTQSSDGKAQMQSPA

B1: Lanadelumab (full length anti-pKal antibody) (antibody, IgG1, V domains shown)
VH: EVQLLESGGGLVQPGGSLRLSCAASGFTFSHYIMMWVRQAPGKGLEWVSGIYSSGGITVYADSVKGRFTISRDNSKNTLYLQMNSLRAEDTAVYYCAYRRIGVPRRDEFDIWGQGTMVTVSS
VL: DIQMTQSPSTLSASVGDRVTITCRASQSISSWLAWYQQKPGKAPKLLIYKASTLESGVPSRFSGSGSGTEFTLTISSLQPDDFATYYCQQYNTYWTFGQGTKVEIK
IC50 (read off the curve), 6.25 nM pKal: ~2 nM
IC50 (read off the curve), 12.5 nM pKal: ~4 nM
